Experimental data from article doi:10.1101/2022.07.27.501708 (bioRxiv, 2022).

Molecular target: SARS-CoV-2 WT RBD (SPR analyte) (SARS-CoV-2, Wuhan-Hu-1, UniProt P0DTC2)
Experiment: SPR

Binder | Kd [nM] | kon [M⁻¹ s⁻¹]
EH3 IgG (antibody, V domains shown) VH: EVQLVESGGGLVQPGGSLRLSCAASGITVSSNYMTWVRQAPGKGLEWVSVIYSGGSTFYADSVRGRFTISRDNSKNTLYLQMNSLRAEDTAVYYCARDLEMAGAFDIWGQGTMVTVSS VL: not shown | 0.83 to 2.79 | 83200 to 274000
EH8 IgG (antibody, V domains shown) VH: QVQLVQSGAEVKKPGASVKVSCKASGYTFSSYGISWVRQAPGQGLEWMGWISPYNGNTKYPQKFQGRVTMTTDTSTNTAYMELRSLRSDDTAVYYCARDLELGGGFDYWGQGTLVTVSS VL: QSALTQPASVSGSPGQSITISCTGTSSDVGSYNLVSWYQQHPDKAPKFMIYEGTKRPSGVSNRFSGSKSGNTASLTISGLQAEDEADYYCCSYAGNSTWVFGGGTKLTVL | 1.3 to 7.22 | 403000 to 837000
